Data taken from the supplement of paper PMC9170038.

Test system: MS2 coat protein
Experiment: apparent KD of MS2 coat protein; designed switch direction (-1 OFF switch, 1 ON switch): 1; higher = weaker reporter binding
Summary of the method: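 Designed RNA switches with common flanks were made on Illumina chips by stalled E. coli RNA polymerase. Titration with SNAP-549-labelled MS2 coat protein doubled from 0.7 or 1.5 nM up to 3 µM. Apparent KD is each design's median over clusters after curve-fitting normalised fluorescence.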

[1] = input ligand: microRNA oligo, concentration not stated
[2] = Eterna round: R95, input ligand: FMN 200 uM
[3] = Eterna round: R95, input ligand: microRNA oligo, concentration not stated
[4] = Eterna round: R95, input ligand: none

## GAGCUCGUGUGAGGAUAUGCCGCCGUUUCGGCUGCAGAAGGUGCUACGUUACAUGAGGAUCACCCAUGUCUCUGUUGUUUCGUU [salish99_SSNG1_r04_959] (Eterna round: R96, puzzle: Same State NG 1)
Input ligand: FMN 200 uM
  apparent KD of MS2 coat protein: 18.5 nM
[1]
  apparent KD of MS2 coat protein: 17 nM
Input ligand: none
  apparent KD of MS2 coat protein: 24.9 nM

## GAGGAACAUGAGGAUCACCCAUGUAGGAUGGGACAAGGAUAUGUAGAUAGCGGAGGAGAGACAGAAGGUGUAGGAA [JR_SS1_Sub053] (puzzle: Same State 1)
[2]
  apparent KD of MS2 coat protein: 354 nM
[3]
  apparent KD of MS2 coat protein: 431 nM
[4]
  apparent KD of MS2 coat protein: 483 nM

## GAGGGACAGACCAACAUGAGGAUCACCCAUGUCCUCGCAGGUCAGGAUAUUAUUAGGAUCACCAGUGAGAAGGGACGGUGAAGG (Eterna round: R96, puzzle: Same State NG 3)
Input ligand: FMN 200 uM
  apparent KD of MS2 coat protein: 366 nM
[1]
  apparent KD of MS2 coat protein: 227 nM
Input ligand: none
  apparent KD of MS2 coat protein: 521 nM

## GAGGGACAGACCAACAUGAGGAUCACCCAUGUCCUCGCUGGUCAGGAUAUCCCGCCAACAGGCGAGGAGAAGGGACGGUGAACC (Eterna round: R96, puzzle: Same State NG 3)
Input ligand: FMN 200 uM
  apparent KD of MS2 coat protein: 1110 nM
[1]
  apparent KD of MS2 coat protein: 425 nM
Input ligand: none
  apparent KD of MS2 coat protein: 724 nM

## GAGGGACAUGAGGAUCACCCAUGUGGUAAAUUUAAAGGAUAUUAGUGUGGGAAAGUAGGGUAAGAAGGUUGAUUGG [JR_SS1_Sub086] (puzzle: Same State 1)
[3]
  apparent KD of MS2 coat protein: 87.7 nM

## GAGUAGGACUUACAGGAUAUAUGGAGGUUGACAUGAGGAUCACCCAUGUCUGAGUUGGGAGGAGGAUAGAAGGGUAUGAGAGGCG [JR_SS2_Sub031] (puzzle: Same State 2)
[2]
  apparent KD of MS2 coat protein: 27.1 nM
[3]
  apparent KD of MS2 coat protein: 23.3 nM
[4]
  apparent KD of MS2 coat protein: 22.8 nM

## GAGUAGUUGAAAGGAUAUAGAUUGUUGUAGGAUCUAGAAGGUUCUAACAUGAGGAUCACCCAUGUAGGACUAUUCCUGUGUAUC [Parity 87 - Jieux - Same State NG 1] (Eterna round: R96, puzzle: Same State NG 1)
Input ligand: FMN 200 uM
  apparent KD of MS2 coat protein: 11.5 nM
[1]
  apparent KD of MS2 coat protein: 8.94 nM
Input ligand: none
  apparent KD of MS2 coat protein: 13.1 nM

## GAGUAGUUGAAAGGAUAUUGAUUAUUGUAGGAUCAAGAAGGUUUUAACAUGAGGAUCACCCAUGUAGGACUAUAAAUGUGAAAA [Parity 94 - Jieux - Same State NG 1] (Eterna round: R96, puzzle: Same State NG 1)
Input ligand: FMN 200 uM
  apparent KD of MS2 coat protein: 12.2 nM
[1]
  apparent KD of MS2 coat protein: 10.1 nM
Input ligand: none
  apparent KD of MS2 coat protein: 15.6 nM

## GAGUGACGAUUAGGAUAUACAGUGAUAAUGAUAGUAGAAGGAAUUGACAUGAGGAUCACCCAUGUAGGACUAAUCCAGAGAGAG [Parity 29 - Jieux - Same State NG 1] (Eterna round: R96, puzzle: Same State NG 1)
Input ligand: FMN 200 uM
  apparent KD of MS2 coat protein: 86.5 nM
[1]
  apparent KD of MS2 coat protein: 39.9 nM
Input ligand: none
  apparent KD of MS2 coat protein: 57.8 nM

## GAGUGAUGGGUUAGUAACUGCUGGGAAGGACAUGAGGAUCACCCAUGUGAGUAGCGAGCUUGUGCUCGUCUUAUUAG [JR_SHM208A_Sub023] (puzzle: Sensor for hsa-mir-208a)
[2]
  apparent KD of MS2 coat protein: 207 nM
[3]
  apparent KD of MS2 coat protein: 114 nM
[4]
  apparent KD of MS2 coat protein: 379 nM

## GAGUGGAGGAGAGGAUAUACAAUGAUAAUCACAGUAGAAGGUUCUAACAUGAGGAUCACCCAUGUAGGACUAUUCCUGAGAGAA [Parity 49 - Jieux - Same State NG 1] (Eterna round: R96, puzzle: Same State NG 1)
Input ligand: FMN 200 uM
  apparent KD of MS2 coat protein: 10.2 nM
[1]
  apparent KD of MS2 coat protein: 9.32 nM
Input ligand: none
  apparent KD of MS2 coat protein: 15.7 nM

## GAGUGGCAGUUAGGAUAUAUAGUGAUAAUGAUAAUAGAAGGAACAGACAUGAGGAUCACCCAUGUAGGACUAAUCCAGAGAGAG [Parity 34 - Jieux - Same State NG 1] (Eterna round: R96, puzzle: Same State NG 1)
Input ligand: FMN 200 uM
  apparent KD of MS2 coat protein: 32.3 nM
[1]
  apparent KD of MS2 coat protein: 21.7 nM
Input ligand: none
  apparent KD of MS2 coat protein: 28.3 nM

## GAGUGGUAGAGAGGAUAUGCAUUGUUAUUAAAUGCAGAAGGUUUUAACAUGAGGAUCACCCAUGUAGGACUAUUCCUGUGUUUC [Parity 66 - Jieux - Same State NG 1] (Eterna round: R96, puzzle: Same State NG 1)
[1]
  apparent KD of MS2 coat protein: 10.8 nM

## GCAGGACAUGAGGAUCACCCAUGUUCAAAAUAUUGAGGAUAUGGAUACGGUAUAUCCGAACCAGAAGGCAACCUGC [SS1 Teenbexe 22] (puzzle: Same State 1)
[3]
  apparent KD of MS2 coat protein: 16.6 nM

## GCAUGAGAGAUAGGAUAUCGUGUACCUACAUGUGACAUGAGGAUCACCCAUGUGGUAAGUAUGAGCGAGAAGGAUCCGAUAUGU [salish99_SSNG2_r04_1002] (Eterna round: R96, puzzle: Same State NG 2)
Input ligand: FMN 200 uM
  apparent KD of MS2 coat protein: 26.6 nM
[1]
  apparent KD of MS2 coat protein: 44.4 nM
Input ligand: none
  apparent KD of MS2 coat protein: 60.9 nM

## GCAUGGUUACAUGCUAUACAUGAGGAUCACCCAUGUGAUGGGAAGGAUAUGUCCUCAAUUAGUGGACAGAAGGUCCAAACAUUU [Fiskers NG3ss - 1] (Eterna round: R96, puzzle: Same State NG 3)
Input ligand: FMN 200 uM
  apparent KD of MS2 coat protein: 136 nM
[1]
  apparent KD of MS2 coat protein: 234 nM
Input ligand: none
  apparent KD of MS2 coat protein: 939 nM

## GCCAUCGCAUGAGGAUAUGGCACCGUUUCGGUGCCAGAAGGCAUGUCAAAUGACAUGAGGAUCACCCAUGUAGUUAAGAUGGCA [JL Fiskers NG1ss - 33 mod 9] (Eterna round: R96, puzzle: Same State NG 1)
Input ligand: FMN 200 uM
  apparent KD of MS2 coat protein: 29.2 nM
[1]
  apparent KD of MS2 coat protein: 417 nM
Input ligand: none
  apparent KD of MS2 coat protein: 542 nM

## GCCAUCGUAUGAGGAUAUGGCACCGUUUCGGUGCCAGAAGGCAUGUCAAUUGACAUGAGGAUCACCCAUGUAUUUUCGAUGGCA [JL Fiskers NG1ss - 33 mod 11] (Eterna round: R96, puzzle: Same State NG 1)
Input ligand: FMN 200 uM
  apparent KD of MS2 coat protein: 74.6 nM
[1]
  apparent KD of MS2 coat protein: 385 nM
Input ligand: none
  apparent KD of MS2 coat protein: 779 nM

## GCCAUCGUGUGAGGAUAUGGCACCGUUUCGGUGCCAGAAGGCAUGUCAAUUGACAUGAGGAUCACCCAUGUAUUAGCGAUGGCA [JL Fiskers NG1ss - 33 mod 3] (Eterna round: R96, puzzle: Same State NG 1)
Input ligand: FMN 200 uM
  apparent KD of MS2 coat protein: 159 nM
[1]
  apparent KD of MS2 coat protein: 292 nM
Input ligand: none
  apparent KD of MS2 coat protein: 988 nM

## GCCGGCUGGUGAGGAUAUGGCGCCUUAUUGGUGCCAGAAGGCAUGUCAAUUGACAUGAGGAUCACCCAUGUGUUGUCGUUGGCG [salish99_SSNG1_r04_610] (Eterna round: R96, puzzle: Same State NG 1)
Input ligand: FMN 200 uM
  apparent KD of MS2 coat protein: 695 nM
[1]
  apparent KD of MS2 coat protein: 357 nM
Input ligand: none
  apparent KD of MS2 coat protein: 353 nM

## GCGAAAGCCGUAGGAUAUGUAGGAUAUGGCGAGAGCUAAGCUUGGAAGUCACUUCAGCCAGAAGGACAGAAGGACGCCGAAAGG [pwkr ssNG2 2FMN + F9.15] (Eterna round: R96, puzzle: Same State NG 2)
Input ligand: FMN 200 uM
  apparent KD of MS2 coat protein: 1410 nM
[1]
  apparent KD of MS2 coat protein: 387 nM
Input ligand: none
  apparent KD of MS2 coat protein: 46.2 nM

## GCGAGCGUACUUGCAGACAUGAGGAUCACCCAUGUAAAUGGGAAGGAUAUGGUACCGUUUCGGUACCAGAAGGUCCUAAGUGAU [salish99_SSNG3_r04_301] (Eterna round: R96, puzzle: Same State NG 3)
Input ligand: FMN 200 uM
  apparent KD of MS2 coat protein: 665 nM
[1]
  apparent KD of MS2 coat protein: 1080 nM
Input ligand: none
  apparent KD of MS2 coat protein: 1130 nM

## GCGCAGCCGGGUGAGGAUAUCGGUGGUAAAACAUGAGGAUCACCCAUGUCCGAAGCUCGGACUUCCGAGAAGGCGCCCAGCUGCA [Erisin] (puzzle: Same State 2)
[3]
  apparent KD of MS2 coat protein: 61.2 nM
